Target: the molecule itself
Assay: AUC

B1: nontagged Atg38 (recombinant) (natural protein, budding yeast, UniProt Q05789 1-226, looked up)
chain: MSTLAEVYTIIEDAEQECRKGDFTNAKAKYQEAIEVLGPQNENLSQNKLSSDVTQAIDLLKQDITAKIQELELLIEKQSSEENNIGMVNNNMLIGSVILNNKSPINGISNARNWDNPAYQDTLSPINDPLLMSILNRLQFNLNNDIQLKTEGGKNSKNSEMKINLRLEQFKKELVLYEQKKFKEYGMKIDEITKENKKLANEIGRLRERWDSLVESAKQRRDKQKN
stoichiometry N: 2

— article PMC3812978 (The Journal of Cell Biology, 2013)
